# Test results reported in PMC2843395 (Journal of molecular biology, 2010).
# Like-named read-outs stand apart in the source and are kept apart here. *: point of attachment. TAMRA = 5-carboxytetramethylrhodamine, CN(C)c1ccc2c(-c3ccc(C(=O)*)cc3C(=O)[O-])c3ccc(=[N+](C)C)cc-3oc2c1
# T1: S100B (tight site, EF2) (Bos taurus, UniProt P02638)
# T1 sequence (P02638 1-92): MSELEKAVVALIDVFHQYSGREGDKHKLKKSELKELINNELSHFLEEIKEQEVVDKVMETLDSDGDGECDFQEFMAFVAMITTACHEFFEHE
# B1: S100B (wild-type, recombinant) (natural protein, bovine)
# chain: MSELEKAVVALIDVFHQYSGREGDKHKLKKSELKELINNELSHFLEEIKEQEVVDKVMETLDSDGDGECDFQEFMAFVAMITTACHEFFEHE
# Experiments:
# TAMRA-TRTK12-am = test: fluorescence polarisation
# [1] = molecular target: S100B (Rattus norvegicus) (UniProt P04631); details: cited from earlier work
# E72A mutant of S100B = test: fluorescence polarisation
# S100B (tight site, EF2) [2] = molecular target: T1, S100B (tight site, EF2); details: p53^367–388; ref [21]; cited from earlier work
# S100B (tight site, EF2) [3] = molecular target: T1, S100B (tight site, EF2); details: p53^367–388; ref [21]; cited from earlier work; remark: listed apart in the source
# [4] = molecular target: B1; test: fluorescence polarisation
# [5] = molecular target: B1; test: fluorescence polarisation; remark: listed apart in the source
# [6] = molecular target: B1; test: crystal structure
# [7] = molecular target: B1; test: fluorescence polarisation; remark: listed apart in the source
# [8] = molecular target: B1; test: fluorescence polarisation; remark: listed apart in the source
# crystal structure = molecular target: the molecule itself; test: crystal structure
molecule,measurement,setting,value
E72A mutant of S100B (natural protein),Kd,TAMRA-TRTK12-am,16800 nM
S100B (from UniProt P04631),Kd,[1],< 1 nM
"TRTK-12 peptide (derived from the actin capping protein CapZ, residues 265-276)",Kapp,E72A mutant of S100B,110 µM
same,Kd,E72A mutant of S100B,3200 nM
p53^367–388: peptide derived from the negative regulatory domain of p53 (residues 367–388),Fold increase in Ca2+ affinity of S100B EF2 with p53 peptide bound,"S100B (tight site, EF2) [2]",3 fold
same,Fold increase in Mn2+ binding of S100B with p53 peptide bound,"S100B (tight site, EF2) [3]",3 fold
"TRTKIDWNKILS [TRTK-12 peptide (derived from the actin capping protein CapZ, residues 265-276)]",Kd,[4],2900 ± 500 nM
same,Kd,[5],3000 ± 1000 nM
same,stoichiometry N,[6],1 per S100B subunit
{TAMRA}-TRTKIDWNKILS-NH2 (SMILES CC[C@H](C)[C@H](NC(=O)[C@H](CCCCN)NC(=O)[C@H](CC(N)=O)NC(=O)[C@H](Cc1c[nH]c2ccccc12)NC(=O)[C@H](CC(=O)O)NC(=O)[C@@H](NC(=O)[C@H](CCCCN)NC(=O)[C@@H](NC(=O)[C@H](CCCNC(=N)N)NC(=O)[C@@H](NC(=O)c1ccc(-c2c3ccc(=[N+](C)C)cc-3oc3cc(N(C)C)ccc23)c(C(=O)[O-])c1)[C@@H](C)O)[C@@H](C)O)[C@@H](C)CC)C(=O)N[C@@H](CC(C)C)C(=O)N[C@@H](CO)C(N)=O) [TAMRA-TRTK12-am],Kd,[7],6000 ± 2000 nM
same,Kd,[8],1200 ± 200 nM
B1,stoichiometry N,crystal structure,2
